1 protein from publication PMC8248744, “High-resolution genetic mapping reveals cis-regulatory and copy number variation in loci associated with cytochrome P450-mediated detoxification in a generalist arthropod pest” (PLoS Genetics, 2021) can be followed below.

Substrate in this series: COC(c1ccc(NC(=O)c2c(C)nn(C)c2C)cc1CC(C)C)(C(F)(F)F)C(F)(F)F
Nature of the series: HPLC-UV substrate depletion, recombinant membranes. It is filed as biochemical, Tetranychus urticae. Conditions: NADPH-regenerating system, 0.2 M Tris-HCl pH 7.4, 0.25 mM MgCl2, 2.5% acetonitrile, 30°C, N-demethylation at pyrazole, co-expressed with TuCPR.

B1: CYP392A16 (Tetranychus urticae) (protein)
chain: MIEVIHSGSIPDGHFTVSTIMFLISNLLSSQPLVNSLIGLALFWLVKYLFNTIQRIRSLPAGPWGLPIVGYLPFIKDDIYLVFDQLSKKYGPVYSLKLGSFDVVLVCDWPHMKDAVANDALLARQHEVFFPGVVEGRSFAEMSGDPWREHRRLSLHILRDVGLGKSTIETLVKEEVDQFLSALENNGKPADFEKCISRSVTNNVSILLFGHKYERDDPTAIAISSANTEVGRSFSFAGVVAFLPWLAELVFKFELFNVTRLKKCFQIVDTHIQDEIVKHQEKNSQEVVDYIDGYLVEKKNREKQNKVDDNFTIEILRRNAGAFYGAGTETVSSTMEWIMVYLVKYPEYQDKIRSEIADVIGFERKPDYVDRNRMPFTMAFIHEIHRIGSVVANNLLRRAASDTKIGNYNIPKDTLVILNFWSVNRDPKLWPNPDEFDPTRFLTEDGSKVVKPPHLIPFSAGKRNCPGESLANVELFLYLVCMLQKYHVKVKPGTKISTEAIFGLSRRPSQLPTFIFEKISNSN
notes: E. coli BL21STAR membrane fraction; with NADPH--cytochrome P450 reductase
As for B1, the Km is reported as 17.79 (± 3.29 SE) μM.
